For eight molecules, EC50 results are on record in patent US20220010021A1 (Sanofi, published 2022).

The target of this assay is human FGFR1c + KLB receptor complex on HEK293 iLite FGF21 reporter cells (human, UniProt P11362 22-822; Q86Z14 1-1044). As to the kind of experiment: cell-based or functional assay.
Chain of human FGFR1c + KLB receptor complex on HEK293 iLite FGF21 reporter cells (P11362 22-822, chain 1 of 2): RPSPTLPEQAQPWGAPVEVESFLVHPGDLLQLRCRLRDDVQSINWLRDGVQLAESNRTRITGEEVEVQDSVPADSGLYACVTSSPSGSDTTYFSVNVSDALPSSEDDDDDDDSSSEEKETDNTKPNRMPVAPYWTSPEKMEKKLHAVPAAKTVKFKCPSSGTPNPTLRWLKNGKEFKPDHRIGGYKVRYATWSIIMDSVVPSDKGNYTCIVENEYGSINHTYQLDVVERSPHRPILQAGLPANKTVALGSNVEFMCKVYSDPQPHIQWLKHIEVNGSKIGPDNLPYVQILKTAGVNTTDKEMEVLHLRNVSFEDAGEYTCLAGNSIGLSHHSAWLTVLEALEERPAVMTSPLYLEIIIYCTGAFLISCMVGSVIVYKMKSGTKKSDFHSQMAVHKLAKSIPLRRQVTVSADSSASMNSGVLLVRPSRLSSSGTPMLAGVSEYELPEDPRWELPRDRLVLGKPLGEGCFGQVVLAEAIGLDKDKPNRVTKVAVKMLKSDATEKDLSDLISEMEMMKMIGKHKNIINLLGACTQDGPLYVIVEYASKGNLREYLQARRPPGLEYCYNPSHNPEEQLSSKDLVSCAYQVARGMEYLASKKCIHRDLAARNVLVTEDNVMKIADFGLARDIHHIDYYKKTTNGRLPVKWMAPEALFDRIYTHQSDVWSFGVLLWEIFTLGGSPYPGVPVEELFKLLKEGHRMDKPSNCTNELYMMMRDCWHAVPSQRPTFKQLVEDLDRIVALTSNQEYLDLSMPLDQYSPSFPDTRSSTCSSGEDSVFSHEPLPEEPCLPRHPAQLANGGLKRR
Chain of human FGFR1c + KLB receptor complex on HEK293 iLite FGF21 reporter cells (Q86Z14 whole entry, chain 2 of 2): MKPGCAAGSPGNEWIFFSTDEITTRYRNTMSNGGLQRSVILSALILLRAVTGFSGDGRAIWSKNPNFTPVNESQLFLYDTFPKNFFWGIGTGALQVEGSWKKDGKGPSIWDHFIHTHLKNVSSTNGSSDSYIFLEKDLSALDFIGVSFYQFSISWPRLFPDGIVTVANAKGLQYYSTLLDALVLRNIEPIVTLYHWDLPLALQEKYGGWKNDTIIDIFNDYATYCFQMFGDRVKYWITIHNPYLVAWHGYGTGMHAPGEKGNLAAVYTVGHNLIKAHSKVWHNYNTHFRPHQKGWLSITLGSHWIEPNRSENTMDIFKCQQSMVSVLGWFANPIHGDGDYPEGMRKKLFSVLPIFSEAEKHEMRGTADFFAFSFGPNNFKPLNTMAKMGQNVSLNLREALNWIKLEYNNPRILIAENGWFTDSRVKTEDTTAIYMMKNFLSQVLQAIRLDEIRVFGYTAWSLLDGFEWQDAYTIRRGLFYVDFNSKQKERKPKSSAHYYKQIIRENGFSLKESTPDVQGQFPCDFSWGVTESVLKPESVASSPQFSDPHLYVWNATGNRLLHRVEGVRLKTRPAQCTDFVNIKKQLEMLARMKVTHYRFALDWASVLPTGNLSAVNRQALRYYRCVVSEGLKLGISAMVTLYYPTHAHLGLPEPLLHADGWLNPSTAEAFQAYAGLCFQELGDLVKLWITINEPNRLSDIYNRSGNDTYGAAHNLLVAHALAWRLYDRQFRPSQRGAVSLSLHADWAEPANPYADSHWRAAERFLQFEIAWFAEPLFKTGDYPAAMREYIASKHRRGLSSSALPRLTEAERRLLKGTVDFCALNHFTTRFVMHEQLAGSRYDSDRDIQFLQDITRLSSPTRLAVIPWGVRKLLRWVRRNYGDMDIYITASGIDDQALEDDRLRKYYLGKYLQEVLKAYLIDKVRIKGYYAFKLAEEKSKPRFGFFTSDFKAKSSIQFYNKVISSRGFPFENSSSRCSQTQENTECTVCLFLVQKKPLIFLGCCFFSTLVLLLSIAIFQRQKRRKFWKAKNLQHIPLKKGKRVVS

B1: Ab0391 (antibody, IgG4, V domains shown)
VH: QVTLKESGPVLVKPTETLTLTCTVSGFSLNNARVGVSWIRQPPGKALEWLASIWSNDEKSYSTSLKSRLTISKDTSKSQVVLTMTNMDPVDTATYYCARSVVTGGYYYEGMDVWGQGTTVTVSS
VL: SYVLTQPPSVSVAPGQTARITCGGNNIGSESVHWYQQKPGQAPVLVVDDSDRPSGIPERFSGSNSGNTATLTISRVEAGDEADYYCQVFDGNCSCVVFGGGTKLTVLG
Turning to B1, the EC50 – broadly, the concentration at which the effect is half-maximal – is greater than 100 nM.

B2: Ab0396 (antibody, IgG4, V domains shown)
VH: QVTLKESGPVLVKPTETLTLTCTVSGFSLNNARVGVSWIRQPPGKALEWLASIWSNDEKSYSTSLKSRLTISKDTSKSQVVLTMTNMDPVDTATYYCARSVVTGGYYYEGMDVWGQGTTVTVSS
VL: SYVLTQPPSVSVAPGQTARITCGGNNIGSESVHWYQQKPGQAPVLVVDDSDRPSGIPERFSGSNSGNTATLTISRVEAGDEADYYCQVFDGNSAHVVFGGGTKLTVLG
With B2, the 50% effective concentration (EC50) was greater than 100 nM.

B3: Ab0394 (antibody, IgG4, V domains shown)
VH: QVTLKESGPVLVKPTETLTLTCTVSGFSLNNARVGVSWIRQPPGKALEWLAWIFSNDEKSYSTSLKSRLTISKDTSKSQVVLTMTNMDPVDTATYYCARSVVTGGYYYEGMDVWGQGTTVTVSS
VL: CYVLTQPPSVSVAPGQTARITCGGNNIGSESVHWYQQKPGQAPVLVVDDSDRPSGIPERFSGSNSGNTATLTISRVEAGDEADYYCQVFDGNCSHVVFGGGTKLTVLG
For B3, the EC50 was greater than 100 nM.

B4: Ab0397 (antibody, IgG4, V domains shown)
VH: QVTLKESGPVLVKPTETLTLTCTVSGFSLNNARVGVSWIRQPPGKALEWLAHIWSNDEKSYSTSLKSRLTISKDTSKSQVVLTMTNMDPVDTATYYCARSVVTGGYYYEGMDVWGQGTTVTVSS
VL: CYVLTQPPSVSVAPGQTARITCGGNNIGSESVHWYQQKPGQAPVLVVDDSDRPSGIPERFSGSNSGNTATLTISRVEAGDEADYYCQVFDGNCAHVVFGGGTKLTVLG
For B4, the 50% effective concentration (EC50) is greater than 100 nM.

B5: Ab0398 (antibody, IgG4, V domains shown)
VH: QVTLKESGPVLVKPTETLTLTCTVSGFSLNNARVGVSWIRQPPGKALEWLASIWSNDEKSYSTSLKSRLTISKDTSKSQVVLTMTNMDPVDTATYYCARSVVTGGYYYEGMDVWGQGTTVTVSS
VL: CYVLTQPPSVSVAPGQTARITCGGNNIGSESVHWYQQKPGQAPVLVVDDSDRPSGIPERFSGSNSGNTATLTISRVEAGDEADYYCQVFDGNCAHVVFGGGTKLTVLG
For the molecule B5, the EC50 was greater than 100 nM.

B6: Ab0393 (antibody, IgG4, V domains shown)
VH: QVTLKESGPVLVKPTETLTLTCTVSGFSLNNARVGVSWIRQPPGKALEWLAWIFSNDEKSYSTSLKSRLTISKDTSKSQVVLTMTNMDPVDTATYYCARSVVTGGYYYEGMDVWGQGTTVTVSS
VL: SYVLTQPPSVSVAPGQTARITCGGNNIGSESVHWYQQKPGQAPVLVVDDSDRPSGIPERFSGSNSGNTATLTISRVEAGDEADYYCQVFDGNCSCVVFGGGTKLTVLG
On to B6, for which the EC50 is greater than 100 nM.

B7: Ab0392 (antibody, IgG4, V domains shown)
VH: QVTLKESGPVLVKPTETLTLTCTVSGFSLNNARVGVSWIRQPPGKALEWLAWIFSNDEKSYSTSLKSRLTISKDTSKSQVVLTMTNMDPVDTATYYCARSVVTGGYYYEGMDVWGQGTTVTVSS
VL: SYVLTQPPSVSVAPGQTARITCGGNNIGSESVHWYQQKPGQAPVLVVDDSDRPSGIPERFSGSNSGNTATLTISRVEAGDEADYYCQVFDGNSSHVVFGGGTKLTVLG
With B7, the EC50 was greater than 100 nM.

B8: Ab0399 (antibody, IgG4, V domains shown)
VH: QVTLKESGPVLVKPTETLTLTCTVSGFSLNNARVGVSWIRQPPGKALEWLAHIWSNDEKSYSTSLKSRLTISKDTSKSQVVLTMTNMDPVDTATYYCARSVVTGGYYYEGMDVWGQGTTVTVSS
VL: SYVLTQPPSVSVAPGQTARITCGGNNIGSESVHWYQQKPGQAPVLVVDDSDRPSGIPERFSGSNSGNTATLTISRVEAGDEADYYCQVFDGNCACVVFGGGTKLTVLG
For B8, the concentration for a half-maximal effect (EC50) is greater than 100 nM.
